Results taken from patent publication US10617757B2, “Methods for treating multiple myeloma” (The Regents of the University of California, priority 2014, dated 2020).

System: licensed KIR3DL1+ NK cells
Test: NK cell degranulation (CD107α staining, flow cytometry) stimulated by patient-derived myeloma target cells
Assay type: cell-based, human
Settings: presence vs absence of SAR650984; myeloma target cells expressing HLA-Bw4-I80 ligand; FIG. 8
Experimental: The functional capacity of a patient's NK cells stimulated by pre-treatment patient-derived myeloma target cells was assessed in response to SAR650984, using flow cytometry (FIG. 8).

In the case of “SAR650984: a humanized anti-CD38 antibody; comprises VH and VL CDR sequences set forth in SEQ ID NOs:1-6”, the “Degranulation as measured by CD107α staining (surrogate marker for cytotoxicity)” value was “greatly enhanced degranulation”.
